Assay results taken from article PMC9482650, “Quantitative fragmentomics allow affinity mapping of interactomes” (Nature Communications, 2022).

T1: APBA2_2, Q99767
T1 sequence (Q99767 654-744, limits assumed, looked up): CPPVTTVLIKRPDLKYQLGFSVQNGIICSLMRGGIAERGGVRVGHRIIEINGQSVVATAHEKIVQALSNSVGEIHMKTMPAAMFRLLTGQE

T2: DFNB31_2, Q9P202
T2 sequence (Q9P202 274-371, limits assumed, looked up): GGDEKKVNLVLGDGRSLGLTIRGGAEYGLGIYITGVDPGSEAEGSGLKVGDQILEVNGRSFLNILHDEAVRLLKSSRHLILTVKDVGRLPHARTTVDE

T3: GRIP1_7, Q9Y3R0
T3 sequence (Q9Y3R0 999-1096, limits assumed, looked up): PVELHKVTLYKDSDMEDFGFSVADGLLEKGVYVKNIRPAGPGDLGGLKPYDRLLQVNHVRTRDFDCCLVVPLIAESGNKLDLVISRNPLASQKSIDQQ

T4: HTRA4, P83105
T4 sequence (P83105 378-476, limits assumed, looked up): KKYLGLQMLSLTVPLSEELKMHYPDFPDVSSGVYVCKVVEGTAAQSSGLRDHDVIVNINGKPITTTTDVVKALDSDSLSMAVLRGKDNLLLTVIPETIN

T5: LIN7A, O14910
T5 sequence (O14910 103-200, limits assumed, looked up): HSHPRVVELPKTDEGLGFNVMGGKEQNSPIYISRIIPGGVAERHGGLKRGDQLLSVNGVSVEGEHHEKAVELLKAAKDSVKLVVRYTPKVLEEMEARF

T6: LNX2_2, Q8N448
T6 sequence (Q8N448 334-432, limits assumed, looked up): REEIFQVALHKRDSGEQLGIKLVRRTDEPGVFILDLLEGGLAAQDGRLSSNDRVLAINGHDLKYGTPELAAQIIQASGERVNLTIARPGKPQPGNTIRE

T7: MPDZ_10, O75970
T7 sequence (O75970 1624-1722, limits assumed, looked up): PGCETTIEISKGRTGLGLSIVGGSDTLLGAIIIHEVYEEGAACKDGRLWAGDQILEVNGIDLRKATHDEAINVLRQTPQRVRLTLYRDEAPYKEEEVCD

T8: MPP2, Q14168
T8 sequence (Q14168 180-250, limits assumed, looked up): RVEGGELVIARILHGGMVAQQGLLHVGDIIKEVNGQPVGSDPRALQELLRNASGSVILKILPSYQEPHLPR

T9: NHERF3_4, Q5T2W1
T9 sequence (Q5T2W1 373-468, limits assumed, looked up): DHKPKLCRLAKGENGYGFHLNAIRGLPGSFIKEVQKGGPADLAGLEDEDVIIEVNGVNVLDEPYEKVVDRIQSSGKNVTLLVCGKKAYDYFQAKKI

T10: PCLO, Q9Y6V0
T10 sequence (Q9Y6V0 4491-4600, limits assumed, looked up): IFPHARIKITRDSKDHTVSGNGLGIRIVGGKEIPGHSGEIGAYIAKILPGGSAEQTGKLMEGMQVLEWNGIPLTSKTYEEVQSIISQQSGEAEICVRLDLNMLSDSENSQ

T11: RADIL, Q96JH8
T11 sequence (Q96JH8 971-1071, limits assumed, looked up): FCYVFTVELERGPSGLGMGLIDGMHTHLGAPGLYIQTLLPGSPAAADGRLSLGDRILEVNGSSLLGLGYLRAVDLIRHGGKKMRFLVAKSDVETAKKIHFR

T12: TX1BP3, O14907
T12 sequence (O14907 10-122, limits assumed, looked up): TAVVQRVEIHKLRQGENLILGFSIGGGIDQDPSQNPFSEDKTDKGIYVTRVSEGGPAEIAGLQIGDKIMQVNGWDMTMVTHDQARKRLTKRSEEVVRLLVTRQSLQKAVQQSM


Columns and labels:
Test in all cases: holdup assay
Design in all cases: key: below the threshold = too weak to quantify, mostly under pKd 3.1 to 4
Conditions in all cases: plain residues with an end cap or a label only (N-terminal biotin on a linker: ado-ado)
[1] = target: T1, APBA2_2, Q99767
[2] = target: ARHGEF12, Q9NZN5-2
ARHGEF12, Q9NZN5-2, sequence (Q9NZN5 other isoform, or with tags, fused parts or gaps): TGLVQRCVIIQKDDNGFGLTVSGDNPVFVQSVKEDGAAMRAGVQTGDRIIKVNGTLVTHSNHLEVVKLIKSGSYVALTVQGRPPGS

[3] = target: T2, DFNB31_2, Q9P202
[4] = target: FRMPD2_2, Q68DX3
FRMPD2_2, Q68DX3, sequence (Q68DX3 944-1038): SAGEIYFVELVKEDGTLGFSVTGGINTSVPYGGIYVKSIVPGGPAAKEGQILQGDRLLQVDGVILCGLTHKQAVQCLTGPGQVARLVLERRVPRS

[5] = target: FRMPD2_3, Q68DX3
FRMPD2_3, Q68DX3, sequence (Q68DX3 1073-1166): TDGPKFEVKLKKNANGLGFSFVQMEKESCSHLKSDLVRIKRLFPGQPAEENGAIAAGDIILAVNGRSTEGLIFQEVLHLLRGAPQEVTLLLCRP

[6] = target: T3, GRIP1_7, Q9Y3R0
[7] = target: T4, HTRA4, P83105
[8] = target: IL16_3, Q14005
IL16_3, Q14005, sequence (Q14005 1107-1207): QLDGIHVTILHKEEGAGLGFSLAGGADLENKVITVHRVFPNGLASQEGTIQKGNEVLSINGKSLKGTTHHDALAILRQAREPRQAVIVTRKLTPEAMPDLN

[9] = target: Inadl_10, Q8NI35
Inadl_10, Q8NI35, sequence (Q8NI35 1673-1763): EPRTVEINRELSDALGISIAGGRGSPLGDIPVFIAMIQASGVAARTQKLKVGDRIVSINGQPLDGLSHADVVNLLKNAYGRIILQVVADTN

[10] = target: Inadl_5, Q8NI35
Inadl_5, Q8NI35, sequence (Q8NI35 673-780): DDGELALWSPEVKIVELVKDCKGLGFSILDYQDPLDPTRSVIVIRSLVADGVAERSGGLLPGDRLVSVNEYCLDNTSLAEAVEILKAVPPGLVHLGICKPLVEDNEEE

[11] = target: Inadl_8, Q8NI35
Inadl_8, Q8NI35, sequence (Q8NI35 1425-1530): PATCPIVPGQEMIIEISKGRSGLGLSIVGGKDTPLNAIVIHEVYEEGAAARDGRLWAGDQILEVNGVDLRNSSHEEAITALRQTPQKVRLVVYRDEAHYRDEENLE

[12] = target: Inadl_9, Q8NI35
Inadl_9, Q8NI35, sequence (Q8NI35 1530-1615): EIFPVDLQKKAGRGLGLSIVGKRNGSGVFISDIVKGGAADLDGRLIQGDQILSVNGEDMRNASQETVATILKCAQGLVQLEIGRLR

[13] = target: T5, LIN7A, O14910
[14] = target: LNX1_3, Q8TBB1
LNX1_3, Q8TBB1, sequence (Q8TBB1 500-596): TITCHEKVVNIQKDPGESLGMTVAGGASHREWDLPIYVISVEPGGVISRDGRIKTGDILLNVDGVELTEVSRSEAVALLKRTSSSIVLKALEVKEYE

[15] = target: T6, LNX2_2, Q8N448
[16] = target: MAGI1_1, Q96QZ7
MAGI1_1, Q96QZ7, sequence (Q96QZ7 1-106): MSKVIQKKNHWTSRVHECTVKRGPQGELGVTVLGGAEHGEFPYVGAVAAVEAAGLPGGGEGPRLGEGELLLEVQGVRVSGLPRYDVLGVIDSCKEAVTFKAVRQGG

[17] = target: MAGI1_2, Q96QZ7
MAGI1_2, Q96QZ7, sequence (Q96QZ7 456-580): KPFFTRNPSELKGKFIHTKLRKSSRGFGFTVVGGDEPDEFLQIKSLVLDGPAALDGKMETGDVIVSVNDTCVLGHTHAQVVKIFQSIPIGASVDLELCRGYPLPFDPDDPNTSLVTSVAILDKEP

[18] = target: MAGI3_2, Q5TCQ9
MAGI3_2, Q5TCQ9, sequence (Q5TCQ9 398-503): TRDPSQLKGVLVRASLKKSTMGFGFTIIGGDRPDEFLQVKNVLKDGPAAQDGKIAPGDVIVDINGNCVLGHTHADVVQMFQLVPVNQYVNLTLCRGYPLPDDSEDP

[19] = target: T7, MPDZ_10, O75970
[20] = target: T8, MPP2, Q14168
[21] = target: T9, NHERF3_4, Q5T2W1
[22] = target: T10, PCLO, Q9Y6V0
[23] = target: T11, RADIL, Q96JH8
[24] = target: TJP1_2, Q07157
TJP1_2, Q07157, sequence (Q07157 181-274): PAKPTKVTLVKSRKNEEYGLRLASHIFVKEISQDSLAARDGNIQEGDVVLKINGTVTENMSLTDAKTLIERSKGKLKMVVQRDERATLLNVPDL

[25] = target: TJP2_1, Q9UDY2
TJP2_1, Q9UDY2, sequence (Q9UDY2 24-128): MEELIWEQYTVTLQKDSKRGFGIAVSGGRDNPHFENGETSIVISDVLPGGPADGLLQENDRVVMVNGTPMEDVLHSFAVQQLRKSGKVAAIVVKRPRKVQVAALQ

[26] = target: T12, TX1BP3, O14907

pKd [1]	pKd [2]	pKd [3]	pKd [4]	pKd [5]	pKd [6]	pKd [7]	pKd [8]	pKd [9]	pKd [10]	pKd [11]	pKd [12]	pKd [13]	pKd [14]	pKd [15]	pKd [16]	pKd [17]	pKd [18]	pKd [19]	pKd [20]	Binder	other results
below the threshold	below the threshold	below the threshold	below the threshold	below the threshold	below the threshold	below the threshold	below the threshold	below the threshold	below the threshold	3.82	3.66	below the threshold	below the threshold	4.12	below the threshold	below the threshold	below the threshold	below the threshold	below the threshold	NSTHNLKDYV [CLDN20, P56880]	pKd [21]: below the threshold; pKd [22]: below the threshold; pKd [23]: 3.85; pKd [24]: below the threshold; pKd [25]: 3.8; pKd [26]: below the threshold
below the threshold	4.54	below the threshold	4.21	below the threshold	below the threshold	4.44	below the threshold	3.95	below the threshold	4.28	3.7	below the threshold	below the threshold	4.52	below the threshold	3.94	4.67	3.83	below the threshold	TKEIPNCTSV [SORCS3, Q9UPU3]	pKd [21]: below the threshold; pKd [22]: below the threshold; pKd [23]: 4.05; pKd [24]: below the threshold; pKd [25]: below the threshold; pKd [26]: 4.47
below the threshold	below the threshold	3.52	below the threshold	below the threshold	below the threshold	below the threshold	below the threshold	below the threshold	3.58	3.7	3.52	below the threshold	below the threshold	3.49	below the threshold	3.49	4.12	3.63	below the threshold	QLKSGRDSTV [TMEM178A, Q8NBL3]	pKd [21]: 3.58; pKd [22]: below the threshold; pKd [23]: 3.51; pKd [24]: below the threshold; pKd [25]: below the threshold; pKd [26]: 3.91
